This is an account of results in paper PMC12888920, “MMP-9 regulates disulphide isomerase activity of TGM2 to enhance fusion glycoprotein-mediated syncytium formation of respiratory syncytial virus” (Protein & Cell, 2025).

Experiment [1] concerns the target purified human MMP-9 (human) (UniProt P14780). Description: BLI; ForteBio Octet; who was immobilised and buffer not told in the text shown; three biological replicates. Background: In BLI a coated tip is dipped into the sample, and binding shifts an interference pattern.
The target of experiment [2] is DS-Cav1 (RSV F prefusion conformation) (respiratory syncytial virus (strain not stated)) (UniProt P03420). The description is as above.

Chain of purified human TGM2 (transglutaminase 2) (P21980 whole entry): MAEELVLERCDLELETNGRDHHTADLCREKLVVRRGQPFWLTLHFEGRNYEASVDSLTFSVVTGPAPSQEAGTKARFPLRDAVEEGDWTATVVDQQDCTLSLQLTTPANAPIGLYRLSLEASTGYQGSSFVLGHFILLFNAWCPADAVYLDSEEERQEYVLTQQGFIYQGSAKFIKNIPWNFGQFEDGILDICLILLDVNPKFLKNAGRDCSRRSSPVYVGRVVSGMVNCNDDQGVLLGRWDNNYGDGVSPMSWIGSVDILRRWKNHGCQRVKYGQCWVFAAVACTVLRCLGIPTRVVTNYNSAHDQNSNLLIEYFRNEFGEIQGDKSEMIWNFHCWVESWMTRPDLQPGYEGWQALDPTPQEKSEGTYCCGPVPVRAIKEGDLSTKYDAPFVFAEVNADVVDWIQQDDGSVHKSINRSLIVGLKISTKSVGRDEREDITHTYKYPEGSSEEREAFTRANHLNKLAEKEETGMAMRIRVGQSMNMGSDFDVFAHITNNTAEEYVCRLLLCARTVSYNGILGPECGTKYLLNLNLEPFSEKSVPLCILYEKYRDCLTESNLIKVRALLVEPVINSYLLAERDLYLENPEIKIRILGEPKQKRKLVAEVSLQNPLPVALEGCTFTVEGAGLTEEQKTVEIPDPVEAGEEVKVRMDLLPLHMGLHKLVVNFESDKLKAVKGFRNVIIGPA
Chain of purified human MMP-9 (human) (P14780 20-707): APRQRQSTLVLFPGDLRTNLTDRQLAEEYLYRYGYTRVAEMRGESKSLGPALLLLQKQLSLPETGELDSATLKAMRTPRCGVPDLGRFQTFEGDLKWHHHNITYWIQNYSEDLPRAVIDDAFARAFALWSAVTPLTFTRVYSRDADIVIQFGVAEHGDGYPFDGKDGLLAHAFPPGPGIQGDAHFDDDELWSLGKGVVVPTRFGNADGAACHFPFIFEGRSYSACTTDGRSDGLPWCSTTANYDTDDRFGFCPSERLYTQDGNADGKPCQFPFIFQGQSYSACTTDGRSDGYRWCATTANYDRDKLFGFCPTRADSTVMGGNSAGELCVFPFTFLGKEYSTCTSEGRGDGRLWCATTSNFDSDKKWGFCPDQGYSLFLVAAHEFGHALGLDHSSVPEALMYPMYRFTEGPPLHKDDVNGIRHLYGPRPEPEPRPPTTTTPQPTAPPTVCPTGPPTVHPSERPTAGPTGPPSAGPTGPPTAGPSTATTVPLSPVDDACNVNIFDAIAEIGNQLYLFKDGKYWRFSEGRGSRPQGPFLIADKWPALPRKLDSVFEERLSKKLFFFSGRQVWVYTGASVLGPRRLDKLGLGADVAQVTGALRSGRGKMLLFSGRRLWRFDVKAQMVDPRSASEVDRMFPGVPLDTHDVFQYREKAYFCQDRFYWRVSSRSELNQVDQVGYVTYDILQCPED

For “DS-Cav1 (RSV F prefusion conformation) (from UniProt P03420 26-574) (natural protein)”, the Kd in experiment [1] was found to be 0.146 µM.
In turn, “purified human TGM2 (transglutaminase 2) (from UniProt P21980 1-687) (enzyme)” returned an equilibrium dissociation constant (Kd) in experiment [2] of 6.31 µM.

For orientation: Kd means the concentration at which binding is half-saturated. A higher Kd goes with weaker binding.
